# Data taken from the supplement of paper PMC9170038.
# Test system: MS2 coat protein
# Experiment: apparent KD of MS2 coat protein; designed switch direction (-1 OFF switch, 1 ON switch): -1; higher = weaker reporter binding
# Method in brief: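 Designed RNA switches with common flanks were made on Illumina chips by stalled E. coli RNA polymerase. Titration with SNAP-549-labelled MS2 coat protein doubled from 0.7 or 1.5 nM up to 3 µM. Apparent KD is each design's median over clusters after curve-fitting normalised fluorescence.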
# [1] = Eterna round: R95, input ligand: microRNA oligo, concentration not stated
# [2] = input ligand: microRNA oligo, concentration not stated
# [3] = Eterna round: R95, input ligand: FMN 200 uM
# [4] = Eterna round: R95, input ligand: none
Sequence,apparent KD of MS2 coat protein [1],apparent KD of MS2 coat protein (input ligand: FMN 200 uM),apparent KD of MS2 coat protein (input ligand: none),apparent KD of MS2 coat protein [2],apparent KD of MS2 coat protein [3],apparent KD of MS2 coat protein [4]
GCGAAUAACGAGGAUAUCGUAUCGGAAACGAUACGAGAAGGUGUAACAUGAGGAUCACCCAUGUUCCUCAACGC [Fiskers Ex 6 - 7] (puzzle: Exclusion 6),0.0331 µM,–,–,–,–,–
"GCGACUGGAGGAUAUACAUGAGGAUCACCCAUGUGAUCUAAAAGGGUCUUAUGCCGGUGUAGAAGGCCGAGCAG [Eternabot (L2) Solution 84] (Eterna round: R97, puzzle: Exclusion 3)",–,0.0267 µM,0.0273 µM,–,–,–
"GCGCACCUACCAAAAGGUAGGCUAACAUGAGGAUCACCCAUGUAGGAUAUCGAUUGCUUUGCAGUCGAGAAGGACAUGAUGCGC [JL ENG3 3.80 Mod 11] (Eterna round: R96, puzzle: Exclusion NG 3)",–,0.0732 µM,0.03 µM,0.0214 µM,–,–
GCGCAGUCAGGAUAUGCCGGAUAGGAUCACCCUGUCCAAAGGCAGAAGGGACAUGAGGAUCACCCAUGUGGCGC [e4e Mirror Pins] (puzzle: Exclusion 4),0.0177 µM,–,–,–,0.0222 µM,0.0168 µM
"GCGCCAUCGUGAGAUGGCGUAUAUACAUGAGGAUCACCCAUGUAGGAUAUCGAUUGCUUUGCAGUCGAGAAGGGCGUGUAAUUU [JL ENG3 3.92] (Eterna round: R96, puzzle: Exclusion NG 3)",–,0.0457 µM,0.0348 µM,0.0225 µM,–,–
"GCGCCUUGAGUGAGGAUAUGUUCAUAGUCGCUUGGAUAGAAGGCACAUGAGGAUCACCCAUGUAUCGGAGUUAA [Eternabot (L2) Solution 39] (Eterna round: R97, puzzle: Brourd's mod of Exclusion 4)",–,0.0482 µM,0.0339 µM,–,–,–
"GCGCGAAGGUAGGAUAUCGAGGGAUCUUCCCGCCGAGAAGGACCCACAUGAGGAUCACCCAUGUGGUGAUCCUG [eternacac ex6r4 sub9] (Eterna round: R97, puzzle: Exclusion 6)",–,0.0271 µM,0.0494 µM,–,–,–
"GCGGACAAGAUCGCGAGAUCAGAGACAUGAGGAUCACCCAUGUAGGAUAUCGAUUCGAAACGAAUCGAGAAGGGCAUAGUCCGC [JL denovo 5] (Eterna round: R96, puzzle: Exclusion NG 3)",–,0.0173 µM,0.0194 µM,0.0116 µM,–,–
"GCGGACAAGAUGGCGACAUCAGAGACAUGAGGAUCACCCAUGUAGGAUAUCGAUUCGAAACGAAUCGAGAAGGGCAUAGUCCGC [JL denovo 34] (Eterna round: R96, puzzle: Exclusion NG 3)",–,0.0147 µM,0.0167 µM,0.0103 µM,–,–
"GCGGACUUGAACGUGAGUUCAGAGACAUGAGGAUCACCCAUGUAGGAUAUCGAUUCGAAACGAAUCGAGAAGGGCAUAGUCCGC [JL denovo 13] (Eterna round: R96, puzzle: Exclusion NG 3)",–,0.0233 µM,0.0161 µM,0.0118 µM,–,–
"GCGGAGAUCGUAUGAUAAUACAUGAGGAUCACCCAUGUGUAUACGAUGCAUGGUACCCGCCGCUUUGCUUGUCUUGC [Eternabot (L1) Solution 30] (Eterna round: R97, puzzle: Sensor, turn-off variant 1)",–,0.0164 µM,0.0167 µM,–,–,–
"GCGGCUGACGUCAGGAUAUCCGUACCGUAUGGGUGGGAGAAGGGACAUGAGGAUCACCCAUGUUAAUCUAUUAA [Eternabot (L1) Solution 45] (Eterna round: R97, puzzle: Brourd's mod of Exclusion 4)",–,0.0627 µM,0.0584 µM,–,–,–
"GCGUAGUAUGUAGGAUAUCGGUCAGUUUCUGAUCGAGAAGGACAUGAGGAUCACCCAUGUAAAACGUCCGGUUUCUGGAUACGC [JL ENG1 3.57] (Eterna round: R96, puzzle: Exclusion NG 1)",–,0.0275 µM,0.023 µM,0.0163 µM,–,–
"GCUAGGCAUGUCAGGAUAUGCUGUACCUUGGUACAGCAGAAGGGACAUGAGGAUCACCCAUGUGCCAACCUAGC [JL-BMX4-4.02] (Eterna round: R97, puzzle: Brourd's mod of Exclusion 4)",–,0.736 µM,0.0559 µM,–,–,–
"GCUCCAGGAGGAUAUGCAUUCGAAAACAUGAGGAUCACCCAUGUAGGUGUCCUCGUGCGAGCAGAAGGCCUAAAAC [Rebebiso] (Eterna round: R97, puzzle: Exclusion 5)",–,0.145 µM,0.208 µM,–,–,–
"GCUGAUGCAGGAUAUAUAUGAAGCGUUCGAAUAGAAUGCGAACAUGAGGAUCACCCAUGUAGAAGGGCAUUGGC [Omei Ex 2, 1A] (puzzle: Exclusion 2)",0.0139 µM,–,–,–,–,–
GCUGCGCGAGGAUAUGCGGUUUGUGCUGUGGCCCGUGGCGUACAUGAGGAUCACCCAUGUAGAAGGCGUGUGGG [Apr-15 SS2-54] (puzzle: Exclusion 2),0.0225 µM,–,–,–,–,–
"GCUGGACGAGGAUAUACAAUCGUGCUUCGGCACGUAAGGUCACAUGAGGAUCACCCAUGUAGAAGGUGUCCAGC [E2/2-B2] (Eterna round: R97, puzzle: Exclusion 2)",–,0.0548 µM,0.0183 µM,–,–,–
"GCUGGUCGAGGAUAUACAAUCGUGCUUCGGCACGUAAGAUCACAUGAGGAUCACCCAUGUAGAAGGUGACCAGC [E2/1-B3] (Eterna round: R97, puzzle: Exclusion 2)",–,0.118 µM,0.0251 µM,–,–,–
"GCUUGUGGGCAAGGAUAUCCUACGUUGUUCUGGUUCGUGUCUGUCACAUGAGGAUCACCCAUGUGGGAGAAGGUGCAUUUGGUU [Design 60] (Eterna round: R96, puzzle: Exclusion NG 2)",–,0.0154 µM,0.0172 µM,0.0124 µM,–,–
"GGAAAAAAAGUGAGGAUAUCCGGAGGGAAACCUCCGGAGAAGGCACAUGAGGAUCACCCAUGUAAAAAAAAAAA [AK-MS2ROC-r4-Bmoexclusion4-1] (Eterna round: R97, puzzle: Brourd's mod of Exclusion 4)",–,0.0599 µM,0.0305 µM,–,–,–
GGAAAGCAAGGAUAUACAAGGAGACGAUGGAAAGUAGAGCGACAUGAGGAUCACCCAUGUAGAAGGUGCGAGAG [JR_Exclu2_Sub038] (puzzle: Exclusion 2),0.0391 µM,–,–,–,0.0407 µM,0.0348 µM
GGAAAGGUAGGAUAUACGAAGAAAAAGGGUAGAAUAAUAACACAUGAGGAUCACCCAUGUAGAAGGACCAAAGC [Mat - Exclusion 2 - Mod of my Tesla design - D13] (puzzle: Exclusion 2),0.021 µM,–,–,–,0.0495 µM,0.0254 µM
"GGAAGGCGAGGAUAUACAAUAAAGAAAGGGAAAGACGUGAGACAUGAGGAUCACCCAUGUAGAAGGCGCGGAGA [AK-MS2ROC-r4-exclusion2-12] (Eterna round: R97, puzzle: Exclusion 2)",–,0.0401 µM,0.0324 µM,–,–,–
"GGAAGGUGAGGAUAUACAAAGACGGAAACGUCAGGUGAGAGACAUGAGGAUCACCCAUGUAGAAGGCACGGAGA [AK-MS2ROC-r4-exclusion2-16.1] (Eterna round: R97, puzzle: Exclusion 2)",–,0.279 µM,0.0744 µM,–,–,–
